Results taken from paper PMC9701214, “Orthogonal glycolytic pathway enables directed evolution of noncanonical cofactor oxidase” (Nature Communications, 2022).
Residue numbers refer to the chain shown, from its start. Names may count otherwise.

B1: Lp Nox (Lactiplantibacillus pentosus; D177W/G178E/I158S/V240L) (protein)
chain: MKVIVIGCTHAGTAAVNQILASNPETDVTIYERNDNVSFLSCGIALYLGGEVADPQGLFYSSPEQLAKLGANVHMQHDVTDVDTENHEITVTDLKTGESKKDYYDKLVVTTGSWPVIPPIDGIDSPNVYLCKNWTHAQSLWEAAKPAKRVIVIGGGYSGTELVEAYQKQGKEVTLIWELPRILNKYLDKGFTDRVEKDFVDHGIKMALNQMVKGFSDDGKEVTVKTDKGSYTADMAILCLGFRPNTSLLKGKVDMNPNGSIKTNDYMQTSDPDIYGAGDSVAVHYNPTKKDAYIPLATNAVRQGTLVGLNIFKPTRKYMGTQSTSGLMLFGKTIVSSGMTLEHAQAEKVPAEAVTFEDNYRPEFMPTTKPVLMQLVYNPETREILGAQFMSEHDVSQSANVISVMIQNHNTIDDLGFVDMFFQPIYDRPFNYLNLLGQAAIAHAAEKVTE
notes: recombinant from E. coli BL21(DE3), pQElac vector (pLS504), purified on His-Spin column (His-tag implied); FAD added at lysis
B2: Lp Nox (Lactiplantibacillus pentosus) (protein)
chain: B1 chain with S158I, W177D, E178G, L240V
notes: as for B1
B3: Lp Nox (Lactiplantibacillus pentosus; D177W/I158S/V240L) (protein)
chain: B1 chain with E178G
notes: as for B1

How the values were obtained:
[1] = biological target: T1, XenA (Pseudomonas putida, UniProt Q9R9V9); test: specific activity, absorbance at […] nm; format: biochemical; conditions: 0.2 mM reduced cofactor, 5 mM ketoisophorone, 200 mM potassium phosphate pH 7.5, 37 °C
T1 construct: purified recombinant enzyme (plasmid pEK102 carries XenA WT)
T1 sequence (Q9R9V9 entry or part of it): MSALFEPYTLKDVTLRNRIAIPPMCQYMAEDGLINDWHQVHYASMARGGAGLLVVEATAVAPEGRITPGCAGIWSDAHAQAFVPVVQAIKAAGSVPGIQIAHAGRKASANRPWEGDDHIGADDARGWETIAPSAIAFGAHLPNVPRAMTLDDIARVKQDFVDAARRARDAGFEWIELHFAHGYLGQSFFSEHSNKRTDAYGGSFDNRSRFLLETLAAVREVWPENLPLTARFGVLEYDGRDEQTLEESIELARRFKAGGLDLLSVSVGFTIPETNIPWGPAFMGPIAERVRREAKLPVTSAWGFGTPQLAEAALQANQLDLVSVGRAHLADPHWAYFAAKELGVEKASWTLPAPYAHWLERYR

[2] = substrate: NC(=O)C1=CN([C@@H]2O[C@H](COP(=O)(O)OP(=O)(O)OC[C@H]3O[C@@H](n4cnc5c(N)ncnc54)[C@H](OP(=O)(O)O)[C@@H]3O)[C@@H](O)[C@H]2O)C=CC1; test: purified protein; format: biochemical, Lactiplantibacillus pentosus; conditions: 50 mM Tris-HCl pH 7.0, 37 °C, apparent
[3] = substrate: NC(=O)C1=CN([C@@H]2O[C@H](COP(=O)(O)OP(=O)(O)OC[C@H]3O[C@@H](n4cnc5c(N)ncnc54)[C@H](O)[C@@H]3O)[C@@H](O)[C@H]2O)C=CC1; test: purified protein; format: biochemical, Lactiplantibacillus pentosus; conditions: 50 mM Tris-HCl pH 7.0, 37 °C, apparent

Row | Molecule | specific activity, absorbance at 340 nm [1] | Km [2] [µM] | kcat [2] [s⁻¹] | kcat/Km [2] [M⁻¹ s⁻¹] | Km [3] [µM] | kcat [3] [s⁻¹] | kcat/Km [3] [M⁻¹ s⁻¹]
1 | NC(=O)C1=CN([C@@H]2O[C@H](COP(=O)(O)O)[C@@H](O)[C@H]2O)C=CC1 [NMNH] | Specific activities of redox partners toward NMNH. | – | – | – | – | – | –
2 | B1 | – | 1100 ± 100 | 28 ± 1 | 26000 ± 1000 | 1900 ± 40 | 31 ± 1 | 17000 ± 200
3 | B2 | – | 1900 ± 200 | 18 ± 2 | 9300 ± 200 | 25 ± 1 | 21 ± 0.3 | 840000 ± 10000
4 | B3 | – | 890 ± 40 | 27 ± 2 | 31000 ± 1000 | 1700 ± 200 | 47 ± 4 | 28000 ± 1000
